Measurements: PMC12001206, “Characterization of multiple binding sites on microtubule associated protein 2c recognized by dimeric and monomeric 14‐3‐3ζ” (The Febs Journal, 2025)
Several values for one entry are separate records, joined by “and”; a condition that tells them apart may be missing. Identical values can stand only once. Like-named read-outs stand apart in the source and are kept apart here. Values belong to the molecule of their own block, whether it stands above or below them. Square brackets hold non-standard residues; d marks the D form. Ends that are not written are not given here. pS = N[C@@H](COP(=O)(O)O)C(=O)O

B5: dimeric pseudo wild‐type 14‐3‐3ζ (14‐3‐3ζ C25A/C189A) (natural protein)
chain: SVDMDKNELVQKAKLAEQAERYDDMAAAMKSVTEQGAELSNEERNLLSVAYKNVVGARRSSWRVVSSIEQKTEGAEKKQQMAREYREKIETELRDICNDVLSLLEKFLIPNASQAESKVFYLKMKGDYYRYLAEVAAGDDKKGIVDQSQQAYQEAFEISKKEMQPTHPIRLGLALNFSVFYYEILNSPEKAASLAKTAFDEAIAELDTLSEESYKDSTLIMQLLRDNLTLWTSDTQGDEAEAGEGGEN
notes: additional residues at the N-terminus; 14-3-3ζ, residues 1-245, UniProt P63104; C25A and C189A count on P63104; The results speak of '230 residues examined' in the crystals, the methods of residues 1-245 plus SVD; also called d14‐3‐3ζ; dimeric 14‐3‐3ζ

Columns and labels:
[1] = biological target: MAP2c phosphorylated selectively by PKA at Ser435 (rat) (UniProt P15146); experiment: NMR titration; 31P 1D NMR; 60 μM SP-MAP2c or MP-MAP2c with 12.5-300 μM d14-3-3ζ or 12.5-200 μM m14-3-3ζ; chemical shift changes fitted; apparent KD
[2] = biological target: MAP2c phosphorylated selectively by PKA at Ser435 (rat) (UniProt P15146); experiment: ITC; 14-3-3ζ (d: 2.9-3 mM; m: 1.5 mM) injected into the cell with 90 μM MAP2c or 220 μM fragment 300-467; 27 °C; 50 mM MOPS, 100 mM NaCl, 4 mM β-mercaptoethanol; one set of sites; apparent KD
[3] = biological target: unphosphorylated MAP2c (microtubule associated protein 2c) (rat) (UniProt P15146); experiment: cross-linking; DSBU (200 μM) cross-linking, SDS/PAGE and LC-MS/MS; 20 μM UP-/MP-MAP2c with 80 μM d14-3-3ζ or m14-3-3ζ, or 80 μM d14-3-3ζ with 100 or 400 μM UP-(333-362); PBS, 1 mM TCEP, 37 °C
[4] = biological target: T1, MAP2c fully phosphorylated by PKA (rat, UniProt P15146-3 1-467, almost complete phosphorylation at Ser184, Thr220, and Ser435); experiment: as above
T1 construct: microtubule-associated protein 2c (MAP2c), rat, 467 residues, UniProt A6KFC7; 15N,13C-labelled for the HNCO experiments; also called MP‐MAP2c; source: MAP2c expressed and purified as described earlier, incubated overnight with PKA at 27 °C, purified on HiTrap SP
T1 sequence (looked up): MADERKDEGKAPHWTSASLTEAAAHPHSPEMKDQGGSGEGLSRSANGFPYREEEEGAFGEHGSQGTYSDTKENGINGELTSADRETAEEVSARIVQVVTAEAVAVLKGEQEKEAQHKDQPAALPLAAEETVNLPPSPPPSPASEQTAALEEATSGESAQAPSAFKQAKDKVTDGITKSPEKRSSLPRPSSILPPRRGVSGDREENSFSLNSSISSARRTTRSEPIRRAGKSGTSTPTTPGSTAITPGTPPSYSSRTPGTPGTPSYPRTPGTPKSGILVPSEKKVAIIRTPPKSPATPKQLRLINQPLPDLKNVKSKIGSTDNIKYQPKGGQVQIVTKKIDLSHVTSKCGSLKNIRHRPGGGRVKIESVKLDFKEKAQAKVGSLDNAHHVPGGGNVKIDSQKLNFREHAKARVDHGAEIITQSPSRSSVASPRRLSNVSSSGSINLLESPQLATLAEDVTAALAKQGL

[5] = biological target: T1, MAP2c fully phosphorylated by PKA; experiment: ITC; 14-3-3ζ (d: 2.9-3 mM; m: 1.5 mM) injected into the cell with 90 μM MAP2c or 220 μM fragment 300-467; 27 °C; 50 mM MOPS, 100 mM NaCl, 4 mM β-mercaptoethanol; one set of sites; apparent KD
[6] = biological target: B5; experiment: ITC; 3 mM d14-3-3ζ injected into 160 μM SP-(432-439) or 150 μM UP-(333-362); 27 °C; 50 mM MOPS, 100 mM NaCl, 4 mM β-mercaptoethanol; n set to one in the fit; conditions: both partners purified
[7] = biological target: B5; experiment: NMR titration; 3D HNCO peak broadening; 350 μM 15N,13C-UP-(300-399) with 350 μM d14-3-3ζ; 27 °C; NMR buffer; conditions: both partners purified
[8] = biological target: B5; experiment: ITC; 14-3-3ζ (d: 2.9-3 mM; m: 1.5 mM) injected into the cell with 90 μM MAP2c or 220 μM fragment 300-467; 27 °C; 50 mM MOPS, 100 mM NaCl, 4 mM β-mercaptoethanol; one set of sites; apparent KD; conditions: both partners purified
[9] = biological target: T2, MAP2c phosphorylated selectively by PKA at Ser435 (rat, UniProt P15146-3 1-467, phosphoserine at 435); experiment: NMR titration; 31P 1D NMR; 60 μM SP-MAP2c or MP-MAP2c with 12.5-300 μM d14-3-3ζ or 12.5-200 μM m14-3-3ζ; chemical shift changes fitted; apparent KD; conditions: both partners purified
T2 construct: microtubule-associated protein 2c (MAP2c), rat, 467 residues, UniProt A6KFC7; 15N,13C-labelled for the HNCO experiments; also called SP‐MAP2c; source: MAP2c expressed and purified as described earlier, incubated with PKA for 1 h at 27 °C, purified on HiTrap SP
T2 sequence (looked up): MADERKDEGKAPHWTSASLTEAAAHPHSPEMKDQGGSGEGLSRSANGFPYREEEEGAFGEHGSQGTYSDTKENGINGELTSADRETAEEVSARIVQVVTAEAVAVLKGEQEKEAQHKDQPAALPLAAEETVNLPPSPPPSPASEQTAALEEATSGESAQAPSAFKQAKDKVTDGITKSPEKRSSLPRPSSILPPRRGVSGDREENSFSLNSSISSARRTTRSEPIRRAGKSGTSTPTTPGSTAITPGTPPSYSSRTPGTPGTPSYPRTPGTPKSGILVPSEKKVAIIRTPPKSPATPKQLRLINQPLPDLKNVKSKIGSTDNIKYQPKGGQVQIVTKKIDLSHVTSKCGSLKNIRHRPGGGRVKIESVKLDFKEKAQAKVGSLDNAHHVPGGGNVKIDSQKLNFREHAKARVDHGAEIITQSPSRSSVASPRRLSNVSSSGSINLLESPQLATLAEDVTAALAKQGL

[10] = biological target: T3, unphosphorylated MAP2c (microtubule associated protein 2c) (rat, UniProt P15146-3 1-467); experiment: cross-linking; DSBU (200 μM) cross-linking, SDS/PAGE and LC-MS/MS; 20 μM UP-/MP-MAP2c with 80 μM d14-3-3ζ or m14-3-3ζ, or 80 μM d14-3-3ζ with 100 or 400 μM UP-(333-362); PBS, 1 mM TCEP, 37 °C; conditions: both partners purified
T3 construct: microtubule-associated protein 2c (MAP2c), rat, 467 residues, UniProt A6KFC7; 15N,13C-labelled (M9 medium) for the HNCO experiments; also called UP‐MAP2c
T3 sequence (looked up): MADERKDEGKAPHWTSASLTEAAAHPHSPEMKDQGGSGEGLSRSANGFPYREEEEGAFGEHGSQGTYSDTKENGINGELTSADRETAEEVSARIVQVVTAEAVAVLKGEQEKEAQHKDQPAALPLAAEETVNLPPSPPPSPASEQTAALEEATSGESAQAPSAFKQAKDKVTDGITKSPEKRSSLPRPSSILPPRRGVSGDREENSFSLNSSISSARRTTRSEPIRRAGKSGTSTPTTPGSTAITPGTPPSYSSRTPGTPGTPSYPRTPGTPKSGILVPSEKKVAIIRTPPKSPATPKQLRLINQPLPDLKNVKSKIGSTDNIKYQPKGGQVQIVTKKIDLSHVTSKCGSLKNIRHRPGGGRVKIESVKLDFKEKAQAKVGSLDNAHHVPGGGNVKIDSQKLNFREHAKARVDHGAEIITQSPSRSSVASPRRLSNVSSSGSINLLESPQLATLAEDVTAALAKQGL

[11] = biological target: the molecule itself; experiment: as above
[12] = biological target: T3, unphosphorylated MAP2c (microtubule …); experiment: ITC; 14-3-3ζ (d: 2.9-3 mM; m: 1.5 mM) injected into the cell with 90 μM MAP2c or 220 μM fragment 300-467; 27 °C; 50 mM MOPS, 100 mM NaCl, 4 mM β-mercaptoethanol; one set of sites; apparent KD; conditions: both partners purified
[13] = biological target: T2, MAP2c phosphorylated selectively by PKA …; experiment: as above; conditions: both partners purified
[14] = biological target: T4, monomeric 14‐3‐3ζ‐L12E/M78K/C25A/C189A, P63104; experiment: ITC; free m14-3-3ζ titrated into ITC buffer; heat of dissociation; dimer to monomers; conditions: remark: other sources report otherwise
T4 chain: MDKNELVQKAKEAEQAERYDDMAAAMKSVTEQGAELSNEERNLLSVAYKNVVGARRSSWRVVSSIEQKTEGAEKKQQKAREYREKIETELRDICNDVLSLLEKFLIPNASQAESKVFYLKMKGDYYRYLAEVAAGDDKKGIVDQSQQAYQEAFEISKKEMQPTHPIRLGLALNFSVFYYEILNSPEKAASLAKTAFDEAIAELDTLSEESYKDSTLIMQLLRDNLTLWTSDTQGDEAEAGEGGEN

[15] = biological target: T4, monomeric 14‐3‐3ζ‐L12E/M78K/C25A/C189A, …; experiment: native gel or EMSA; native PAGE; 100 μM d14-3-3ζ or m14-3-3ζ with 0-400 μM MP-MAP2c, 15 min at room temperature; 10% gel, 25 mM Tris, 192 mM glycine, 4 °C; conditions: remark: other sources report otherwise

Molecule: monomeric 14‐3‐3ζ‐L12E/M78K/C25A/C189A (from UniProt P63104 1-245) (natural protein)
Kd [1]: 133 µM
Kd [2]: 102 µM
dH [2]: 2.49 kcal/mol
stoichiometry N [2]: 1.51
stoichiometry N [3]: 2
stoichiometry N [4]: 2
Kd [5]: 17 µM
dH [5]: 0.765 kcal/mol
stoichiometry N [5]: 1.31

B2: MAP2c microtubule binding domain fragment, residues 300–399 (domain or fragment, rat, UniProt P15146-3 300-399, looked up)
chain: LRLINQPLPDLKNVKSKIGSTDNIKYQPKGGQVQIVTKKIDLSHVTSKCGSLKNIRHRPGGGRVKIESVKLDFKEKAQAKVGSLDNAHHVPGGGNVKIDS
notes: MAP2c, rat, UniProt A6KFC7, residues 300-399, containing the MTBD; also called UP‐(300–399); MTBD; source: cloned into pET28a (NcoI, BamHI); expressed in M9 medium (15N,13C) and purified by the same protocol as MAP2c
binding result [7]: binds

B4: MAP2c fragment 300–467 phosphorylated by PKA on Ser435 (domain or fragment, rat, UniProt P15146-3 300-467, looked up)
chain: LRLINQPLPDLKNVKSKIGSTDNIKYQPKGGQVQIVTKKIDLSHVTSKCGSLKNIRHRPGGGRVKIESVKLDFKEKAQAKVGSLDNAHHVPGGGNVKIDSQKLNFREHAKARVDHGAEIITQSPSRSSVASPRRLSNVSSSGSINLLESPQLATLAEDVTAALAKQGL
modifications: phosphoserine at 435
notes: MAP2c, rat, UniProt A6KFC7, residues 300-467, covering MTBD and CTD; also called SP‐(300–467); source: cloned into pET28a; expressed and purified by the same protocol as MAP2c; incubated overnight with PKA at 27 °C
Kd [8]: 24 ± 6 µM

Molecule: B5
Kd [9]: 7.3 µM and < 15 µM
stoichiometry N [9]: 2.73 ± 0.2
stoichiometry N [10]: 2
stoichiometry N ([4]; both partners purified): 2
binding result [11]: binds
Kd [12]: 58 ± 6 µM
dH [12]: 2.72 ± 0.12 kcal/mol
stoichiometry N [12]: 1.93 ± 0.03
Kd [13]: 74 ± 21 µM
dH [13]: 2.08 ± 0.239 kcal/mol
stoichiometry N [13]: 2.68 ± 0.12
Kd ([5]; both partners purified): 21 ± 3 µM
dH ([5]; both partners purified): 1.34 ± 0.0478 kcal/mol
stoichiometry N ([5]; both partners purified): 1.99 ± 0.04

B7: monomeric 14‐3‐3ζ‐L12E/M78K/C25A/C189A, P63104 1-245 (natural protein)
chain: MDKNELVQKAKEAEQAERYDDMAAAMKSVTEQGAELSNEERNLLSVAYKNVVGARRSSWRVVSSIEQKTEGAEKKQQKAREYREKIETELRDICNDVLSLLEKFLIPNASQAESKVFYLKMKGDYYRYLAEVAAGDDKKGIVDQSQQAYQEAFEISKKEMQPTHPIRLGLALNFSVFYYEILNSPEKAASLAKTAFDEAIAELDTLSEESYKDSTLIMQLLRDNLTLWTSDTQGDEAEAGEGGEN
Kd [14]: 600 µM
percent present as a dimer at 100 μM [15]: 20%

The next lines start with the values.

Kd [6]: 1800 ± 100 µM
B1: peptide corresponding to residues 333–362 of MAP2c (peptide)
peptide: QIVTKKIDLSHVTSKCGSLKNIRHRPGGGR
notes: source: synthetic peptide, ordered from Clonestar

Kd [8]: 56 ± 8 µM
B3: unphosphorylated MAP2c fragment 300–467 (MTBD and CTD) (domain or fragment, rat, UniProt P15146-3 300-467, looked up)
chain: LRLINQPLPDLKNVKSKIGSTDNIKYQPKGGQVQIVTKKIDLSHVTSKCGSLKNIRHRPGGGRVKIESVKLDFKEKAQAKVGSLDNAHHVPGGGNVKIDSQKLNFREHAKARVDHGAEIITQSPSRSSVASPRRLSNVSSSGSINLLESPQLATLAEDVTAALAKQGL
notes: MAP2c, rat, UniProt A6KFC7, residues 300-467, covering MTBD and CTD; also called UP‐(300–467); source: cloned into pET28a (NcoI, BamHI); expressed and purified by the same protocol as MAP2c

Kd [6]: 3200 ± 400 µM
B6: phosphopeptide corresponding to residues 432–439 of MAP2c (peptide)
peptide: RRL[pS]NVSS
notes: as for B1
